Test results as given in publication PMC11475653.

Details: ubiquitination at K45

In the case of AMBRA1: K45R, the degradation_or_half_life is reported as “decreases”.
